Legend:
[1] = molecular target: anti-CD19 T-ChARM^3 with 4-1BB/CD3ζ effector domain; assay: immunomagnetic selection on a MACS column of T-ChARM3 T cells mixed with control T cells with StrepTactin Nanobeads 3#; retained fraction stained with anti-Strep tag-FITC, flow cytometry; 30.2 before enrichment [Continued]
[2] = molecular target: anti-CD19 T-ChARM^3 with 4-1BB/CD3ζ effector domain; assay: flow cytometry of CD19-ChARM3 T cells; gated FSC/SSC, PI-negative, CD4+; StrepTactin-APC lot 5010-1018; gate from 10^3 on the APC-A axis [Continued]
[3] = molecular target: anti-CD19 T-ChARM^3 with 4-1BB/CD3ζ effector domain; assay: immunomagnetic selection on a MACS column of T-ChARM3 T cells mixed with control T cells with StrepTactin Microbeads 1#; retained fraction stained with anti-Strep tag-FITC, flow cytometry; 30.2 before enrichment [Continued]
[4] = molecular target: anti-CD19 CAR (short), IgG4 hinge only, 4-1BB/CD3ζ, no tag; assay: flow cytometry of CD19(Short) CAR T cells (no tag, control); gated FSC/SSC, PI-negative, CD4+; StrepTactin-APC lot 5010-1018; gate from 10^3 on the APC-A axis [Continued]
[5] = molecular target: anti-CD19 T-ChARM^2 with 4-1BB/CD3ζ effector domain; assay: flow cytometry of CD19-ChARM2 T cells; gated FSC/SSC, PI-negative, CD4+; StrepTactin-APC lot 5010-1018; gate from 10^3 on the APC-A axis [Continued]
[6] = molecular target: anti-CD19 T-ChARM^2 with 4-1BB/CD3ζ effector domain; assay: flow cytometry of CD19-ChARM2 T cells; gated FSC/SSC, PI-negative, CD4+; StrepTactin-APC lot 5010-1015; gate from 10^3 on the APC-A axis [Continued]
[7] = molecular target: anti-CD19 T-ChARM^3 with 4-1BB/CD3ζ effector domain; assay: immunomagnetic selection on a MACS column of T-ChARM3 T cells mixed with control T cells with StrepTactin Microbeads 2#; retained fraction stained with anti-Strep tag-FITC, flow cytometry; 30.2 before enrichment [Continued]
[8] = molecular target: anti-CD19 T-ChARM^3 with 4-1BB/CD3ζ effector domain; assay: immunomagnetic selection on a MACS column of T-ChARM3 T cells mixed with control T cells with StrepTactin Microbeads 1#; effluent (not retained) stained with anti-Strep tag-FITC, flow cytometry; 30.2 before enrichment [Continued]
[9] = molecular target: anti-CD19 CAR (short), IgG4 hinge only, 4-1BB/CD3ζ, no tag; assay: flow cytometry of CD19(Short) CAR T cells (no tag, control); gated FSC/SSC, PI-negative, CD4+; StrepTactin-APC lot 5010-1015; gate from 10^3 on the APC-A axis [Continued]
[10] = molecular target: anti-CD19 T-ChARM^3 with 4-1BB/CD3ζ effector domain; assay: flow cytometry of CD19-ChARM3 T cells; gated FSC/SSC, PI-negative, CD4+; StrepTactin-APC lot 5010-1015; gate from 10^3 on the APC-A axis [Continued]

Q: How did the percent STII (FITC-A) positive cells in the bead-retained fraction (Enrichment) [1] turn out when Strep-Tactin was run?
A: 80.5%

Q: What about the percent of cells in the StrepTactin-APC (APC-A) positive gate [2] of the same substance?
A: 96.5%

Q: What about the percent STII (FITC-A) positive cells in the bead-retained fraction (Enrichment) [3] of the same substance?
A: 77.7%

Q: What about the percent of cells in the StrepTactin-APC (APC-A) positive gate [4] of the same substance?
A: 24.9%

Q: And the percent of cells in the StrepTactin-APC (APC-A) positive gate [5]?
A: 93.5%

Q: And the percent of cells in the StrepTactin-APC (APC-A) positive gate [6]?
A: 92%

Q: And the percent STII (FITC-A) positive cells in the bead-retained fraction (Enrichment) [7]?
A: 87%

Q: What about the percent STII (FITC-A) positive cells in the column effluent [8] of the same substance?
A: 9.91%

Q: And the percent of cells in the StrepTactin-APC (APC-A) positive gate [9]?
A: 18.1%

Q: What about the percent of cells in the StrepTactin-APC (APC-A) positive gate [10] of the same substance?
A: 94.7%

— patent publication US20170267756A1
